# Laboratory results reported in paper PMC5457524, “An engineered high affinity Fbs1 carbohydrate binding protein for selective capture of N-glycans and N-glycopeptides” (Nature Communications, 2017).
# B1: SNAP-Fbs1 fusion protein (wild-type human Fbs1 sugar-binding domain, residues 92-296) [human] / fetuin [modified: sialylated complex N-linked glycans; sialylated complex N-linked glycans] [not stated] (parent)
# chain 1: CQQEGLVPEGGVEEERDHWQQFYFLSKRRRNLLRNPCGEEDLEGWCDVEHGGDGWRVEELPGDSGVEFTHDESVKKYFASSFEWCRKAQVIDLQAEGYWEELLDTTQPAIVVKDWYSGRSDAGCLYELTVKLLSEHENVLAEFSSGQVAVPQDSDGGGWMEISHTFTDYGPGVRFVRFEHGGQDSVYWKGWFGARVTNSSVWVEP
# chain 2: IPLDPVAGYKEPACDDPDTEQAALAAVDYINKHLPRGYKHTLNQIDSVKVWPRRPTGEVYDIEIDTLETTCHVLDPTPLANCSVRQQTQHAVEGDCDIHVLKQDGQFSVLFTKCDSSPDSAEDVRKLCPDCPLLAPLNDSRVVHAVEVALATFNAESNGSYLQLVEISRAQFVPLPVSVSVEFAVAATDCIAKEVVDPTKCNLLAEKQYGFCKGSVIQKALGGEDVRVTCTLFQTQPVIPQPQPDGAEAEAPSAVPDAAGPTPSAAGPPVASVVVGPSVVAVPLPLHRAHYDLRHTFSGVASVESSSGEAFHVGKTPIVGQPSIPGGPVRLCPGRIRYFKI
# Variants of: B1
# Assay: fetuin bead pulldown, SDS-PAGE quantified by ImageJ
# Conditions: with fetuin [modified: sialylated complex N-linked glycans, E. coli cell lysate containing the same amount of wt Fbs1 or variant Fbs1 fusion protein, parent: 1, read off a plot
row,ratio to parent [fold change],Variant
1,1.7,chain 1 CQQEGLVPEGGVEEERDHWQQFYFLSKRRRNLLRNPCGEEDLEGWCDVEHGGDGWRVEELPGPPGVEFTHDESVKKYFASSFEWCRKAQVIDLQAEGYWEELLDTTQPAIVVKDWYSGRSDAGCLYELTVKLLSEHENVLAEFSSGQVAVPQDSDGGGWMEISHTFTDYGPGVRFVRFEHGGQDSVYWKGWFGARVTNSSVWVEP [chain 1 D63P S64P]
2,2.5,chain 1 CQQEGLVPEGGVEEERDHWQQFYFLSKRRRNLLRNPCGEEDLEGWCDVEHGGDGWRVEELPGPPSVEFTHDESVKKYFASSFEWCRKAQVIDLQAEGYWEELLDTTQPAIVVKDWYSGRSDAGCLYELTVKLLSEHENVLAEFSSGQVAVPQDSDGGGWMEISHTFTDYGPGVRFVRFEHGGQDSVYWKGWFGARVTNSSVWVEP [chain 1 D63P S64P G65S]
